Measurements published in article PMC13064919, “Novel extracellular vesicle release pathway facilitated by toxic superoxide dismutase 1 oligomers” (Neurobiology of disease, 2026).

Target: the molecule itself
Experiment: reducing SDS-PAGE western blot; NSC-34 lysate, SDS-PAGE loading dye with 0.1 M DTT, 12% gel

B1: Cavin-1 (natural protein, mouse (endogenous in NSC-34), UniProt O54724 1-392, looked up)
chain: MEDVTLHIVERPYSGFPDASSEGPEPTQGEARATEEPSGTGSDELIKSDQVNGVLVLSLLDKIIGAVDQIQLTQAQLEERQAEMEGAVQSIQGELSKLGKAHATTSNTVSKLLEKVRKVSVNVKTVRGSLERQAGQIKKLEVNEAELLRRRNFKVMIYQDEVKLPAKLSVSKSLKESEALPEKEGDELGEGERPEDDTAAIELSSDEAVEVEEVIEESRAERIKRSGLRRVDDFKKAFSKEKMEKTKVRTRENLEKTRLKTKENLEKTRHTLEKRMNKLGTRLVPVERREKLKTSRDKLRKSFTPDHVVYARSKTAVYKVPPFTFHVKKIREGEVEVLKATEMVEVGPEDDEVGAERGEATDLLRGSSPDVHTLLEITEESDAVLVDKSDSD
notes: Cavin-1, endogenous in NSC-34 cells, detected by western blot; source: endogenous, NSC-34 lysate (RIPA buffer)
stoichiometry N: 2
